Test results: article doi:10.1101/2022.04.14.488316 (bioRxiv, 2022)
No end group written: not given here.

How the values were obtained:
Assay in all cases: fluorescence polarisation
[1] = target: VHL-ElonginC-ElonginB (VCB) with VHL P71I (UniProt P40337;Q15369;Q15370, P71I)
[2] = target: VHL-ElonginC-ElonginB (VCB) with VHL N67Q (UniProt P40337;Q15369;Q15370, N67Q)
[3] = target: VHL-ElonginC-ElonginB (VCB), wild type (UniProt P40337;Q15369;Q15370)

Measured: binding result

VHL-ElonginC-ElonginB (VCB), wild type, sequence (P40337 54-213, chain 1 of 3): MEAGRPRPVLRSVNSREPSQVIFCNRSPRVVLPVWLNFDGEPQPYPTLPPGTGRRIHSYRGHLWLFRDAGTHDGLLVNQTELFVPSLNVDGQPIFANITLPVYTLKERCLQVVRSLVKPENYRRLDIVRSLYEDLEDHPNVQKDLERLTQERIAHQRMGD
VHL-ElonginC-ElonginB (VCB), wild type, sequence (Q15369 17-112, chain 2 of 3): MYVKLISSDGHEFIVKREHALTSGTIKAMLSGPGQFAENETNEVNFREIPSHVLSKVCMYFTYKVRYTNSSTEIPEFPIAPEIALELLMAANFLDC
VHL-ElonginC-ElonginB (VCB), wild type, sequence (Q15370 1-104, chain 3 of 3): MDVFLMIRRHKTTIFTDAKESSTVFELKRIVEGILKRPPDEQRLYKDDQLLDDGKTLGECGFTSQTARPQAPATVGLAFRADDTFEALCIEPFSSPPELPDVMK
VHL-ElonginC-ElonginB (VCB) with VHL P71I, sequence (P40337 54-213 P71I, chain 1 of 3): as the sequence (P40337 54-213, chain 1 of 3) above, with P18I counted along it
VHL-ElonginC-ElonginB (VCB) with VHL P71I, sequence (Q15369 17-112, chain 2 of 3): as the sequence (Q15369 17-112, chain 2 of 3) above
VHL-ElonginC-ElonginB (VCB) with VHL P71I, sequence (Q15370 1-104, chain 3 of 3): as the sequence (Q15370 1-104, chain 3 of 3) above
VHL-ElonginC-ElonginB (VCB) with VHL N67Q, sequence (P40337 54-213 N67Q, chain 1 of 3): as the sequence (P40337 54-213, chain 1 of 3) above, with N14Q counted along it
VHL-ElonginC-ElonginB (VCB) with VHL N67Q, sequence (Q15369 17-112, chain 2 of 3): as the sequence (Q15369 17-112, chain 2 of 3) above
VHL-ElonginC-ElonginB (VCB) with VHL N67Q, sequence (Q15370 1-104, chain 3 of 3): as the sequence (Q15370 1-104, chain 3 of 3) above

DEALAPYIPMDDDFQLRSF (also: FAM label, site not given here) [5,6-carboxyfluorescein (FAM)-labeled HIF-1α peptide JC9]
binds: all assays above
